Results taken from patent US20240182536A1 (MURAL ONCOLOGY, published 2024).
Substitutions are numbered along the chain they refer to.

T1: IL-18 variant G3T, M60K, D157E (human, UniProt Q14116 37-192)
T1 chain: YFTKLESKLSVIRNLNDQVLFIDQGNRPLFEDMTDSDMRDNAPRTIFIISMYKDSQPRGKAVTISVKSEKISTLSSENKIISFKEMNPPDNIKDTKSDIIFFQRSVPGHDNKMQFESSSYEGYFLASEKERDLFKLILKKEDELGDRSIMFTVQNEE

T2: IL-18 variant G3V, M60K (human, UniProt Q14116 37-193)
T2 chain: T1 chain with T3V, E157D

T3: IL-18 variant G3T, M60K (human, UniProt Q14116 37-193)
T3 chain: T1 chain with E157D

T4: IL-18 variant G3E, K53S (human, UniProt Q14116 37-193)
T4 chain: T1 chain with T3E, K53S, K60M, E157D

T5: IL-18 variant G3H, N91V, K53S (human, UniProt Q14116 37-193)
T5 chain: T1 chain with T3H, K53S, K60M, N91V, E157D

T6: WT human IL-18 (human, UniProt Q14116 37-193)
T6 sequence: T1 chain with T3G, M38C, K60M, S68C, S76C, S127C, E157D

T7: IL-18 variant G3T, K53S (human, UniProt Q14116 37-193)
T7 chain: T1 chain with K53S, K60M, E157D

T8: IL-18 variant G3R, K53S (human, UniProt Q14116 37-193)
T8 chain: T1 chain with T3R, K53S, K60M, E157D

B1: human IL-18 binding protein (IL-18BP) (other, UniProt O95998 31-194, looked up)
chain: TPVSQTTTAATASVRSTKDPCPSQPPVFPAAKQCPALEVTWPEVEVPLNGTLSLSCVACSRFPNFSILYWLGNGSFIEHLPGRLWEGSTSRERGSTGTQLCKALVLEQLTPALHSTNFSCVLVDPEQVVQRHVVLAQLWAGLRATLPPTQEALPSSHSSPQQQG
B2: mouse IL-18BP (other, UniProt Q9Z0M9 29-193, looked up)
chain: TSAPQTTATVLTGSSKDPCSSWSPAVPTKQYPALDVIWPEKEVPLNGTLTLSCTACSRFPYFSILYWLGNGSFIEHLPGRLKEGHTSREHRNTSTWLHRALVLEELSPTLRSTNFSCLFVDPGQVAQYHIILAQLWDGLKTAPSPSQETLSSHSPVSRSAGPGVA

Columns and labels:
Assay in all cases: cell-based or functional assay
[1] = molecular target: T1, IL-18 variant G3T, M60K, D157E
WT IL-18-MonoFc = WT IL-18-MonoFc (human)
WT IL-18-MonoFc (human), sequence (chain, as listed by the source): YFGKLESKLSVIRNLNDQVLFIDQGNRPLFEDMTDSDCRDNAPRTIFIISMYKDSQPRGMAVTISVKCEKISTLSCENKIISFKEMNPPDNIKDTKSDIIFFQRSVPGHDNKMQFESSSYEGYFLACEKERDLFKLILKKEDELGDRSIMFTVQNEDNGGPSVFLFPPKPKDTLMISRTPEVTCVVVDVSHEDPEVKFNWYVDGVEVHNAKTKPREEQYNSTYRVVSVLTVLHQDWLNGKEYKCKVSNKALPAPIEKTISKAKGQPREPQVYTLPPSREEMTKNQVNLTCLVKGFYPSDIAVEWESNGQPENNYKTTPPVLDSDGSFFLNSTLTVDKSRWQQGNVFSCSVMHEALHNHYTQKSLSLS

IL-18 variant G3V, M60K = molecular target: T2, IL-18 variant G3V, M60K
IL-18 variant G3T, M60K = molecular target: T3, IL-18 variant G3T, M60K
IL-18 variant G3E, K53S [2] = molecular target: T4, IL-18 variant G3E, K53S
[3] = molecular target: T5, IL-18 variant G3H, N91V, K53S
WT human IL-18 [4] = molecular target: T6, WT human IL-18
IL-18 variant G3E, K53S [5] = molecular target: T4, IL-18 variant G3E, K53S
[6] = molecular target: T5, IL-18 variant G3H, N91V, K53S
IL-18 variant G3T, K53S = molecular target: T7, IL-18 variant G3T, K53S
WT human IL-18 [7] = molecular target: T6, WT human IL-18; remark: listed apart in the source
IL-18 variant G3R, K53S = molecular target: T8, IL-18 variant G3R, K53S
WT human IL-18 [8] = molecular target: T6, WT human IL-18; remark: listed apart in the source

Row | Binder | Potency - with IL-18BP (IC50), IFN gamma expression in PBMCs [1] [nM] | Potency - with IL-18BP (IC50), IFN gamma expression in PBMCs (WT IL-18-MonoFc) [nM] | Potency - with IL-18BP (IC50), IFN gamma expression in PBMCs (IL-18 variant G3V, M60K) [nM] | Potency - with IL-18BP (IC50), IFN gamma expression in PBMCs (IL-18 variant G3T, M60K) [nM] | IC50 (read off the curve); IFN gamma from human PBMCs, G3E/K53S at 2000 pM, human IL-18BP titrated; partial inhibition (IL-18 variant G3E, K53S [2]) [pM] | IC50 (read off the curve); IFN gamma from human PBMCs, G3H/K53S/N91V at 1000 pM, human IL-18BP titrated; partial inhibition [3] [pM] | IC50 (read off the curve); IFN gamma from human PBMCs, WT IL-18 at 200 pM, human IL-18BP titrated (WT human IL-18 [4]) [pM] | Potency - with IL-18BP (IC50), IFN gamma expression in PBMCs (IL-18 variant G3E, K53S [5]) [nM] | Potency - with IL-18BP (IC50), IFN gamma expression in PBMCs [6] [nM] | Potency - with IL-18BP (IC50), IFN gamma expression in PBMCs (IL-18 variant G3T, K53S) [nM] | Potency - with IL-18BP (IC50), IFN gamma expression in PBMCs (WT human IL-18 [7]) [nM] | IC50 (read off the curve); IFN gamma from human PBMCs, G3R/K53S at 200 pM, mouse IL-18BP titrated; partial inhibition (IL-18 variant G3R, K53S) [pM] | IC50 (read off the curve); IFN gamma from human PBMCs, WT IL-18 at 200 pM, mouse IL-18BP titrated (WT human IL-18 [8]) [pM]
1 | B1 | > 100 | 0.096 | > 100 | > 100 | ~1000 | ~20000 | ~100 | 0.925 | 24.3 | 15.3 | 0.096 |  | 
2 | B2 |  |  |  |  |  |  |  |  |  |  |  | ~10000 | ~2000
